Results published in US20250325651A1.

Assays:
Assay in all cases: sandwich ELISA (coated antibody, conditioned medium, anti-His detection), OD450 grade
[1] = target: hMPV005 hMPV F-CompA fusion protein (human metapneumovirus (strain A))
[2] = target: hMPV008 hMPV F-CompA fusion protein (human metapneumovirus (strain B))
[3] = target: hMPV021 hMPV F-CompA fusion protein (human metapneumovirus (strain B))
[4] = target: hMPV024 hMPV F-CompA fusion protein (human metapneumovirus (strain A))
[5] = target: hMPV026 hMPV F-CompA fusion protein (not cleaved by furin) (human metapneumovirus (strain A))
[6] = target: hMPV027 hMPV F-CompA fusion protein (not cleaved by furin) (human metapneumovirus (strain A))
[7] = target: hMPV027C, furin-cleaved form of hMPV027 hMPV F-CompA fusion protein (human metapneumovirus (strain A))
[8] = target: hMPV033 hMPV F-CompA fusion protein (human metapneumovirus (strain A))

Measured: OD450

MPE8 (antibody)
1 to 2 od: all assays above
